Results: paper doi:10.1101/2024.07.03.601791

Molecular target: Kapβ2 Δloop (human) (UniProt Q92973)
Test: AUC

Kapβ2 Δloop (human), sequence (Q92973 9-898, stated change not applied): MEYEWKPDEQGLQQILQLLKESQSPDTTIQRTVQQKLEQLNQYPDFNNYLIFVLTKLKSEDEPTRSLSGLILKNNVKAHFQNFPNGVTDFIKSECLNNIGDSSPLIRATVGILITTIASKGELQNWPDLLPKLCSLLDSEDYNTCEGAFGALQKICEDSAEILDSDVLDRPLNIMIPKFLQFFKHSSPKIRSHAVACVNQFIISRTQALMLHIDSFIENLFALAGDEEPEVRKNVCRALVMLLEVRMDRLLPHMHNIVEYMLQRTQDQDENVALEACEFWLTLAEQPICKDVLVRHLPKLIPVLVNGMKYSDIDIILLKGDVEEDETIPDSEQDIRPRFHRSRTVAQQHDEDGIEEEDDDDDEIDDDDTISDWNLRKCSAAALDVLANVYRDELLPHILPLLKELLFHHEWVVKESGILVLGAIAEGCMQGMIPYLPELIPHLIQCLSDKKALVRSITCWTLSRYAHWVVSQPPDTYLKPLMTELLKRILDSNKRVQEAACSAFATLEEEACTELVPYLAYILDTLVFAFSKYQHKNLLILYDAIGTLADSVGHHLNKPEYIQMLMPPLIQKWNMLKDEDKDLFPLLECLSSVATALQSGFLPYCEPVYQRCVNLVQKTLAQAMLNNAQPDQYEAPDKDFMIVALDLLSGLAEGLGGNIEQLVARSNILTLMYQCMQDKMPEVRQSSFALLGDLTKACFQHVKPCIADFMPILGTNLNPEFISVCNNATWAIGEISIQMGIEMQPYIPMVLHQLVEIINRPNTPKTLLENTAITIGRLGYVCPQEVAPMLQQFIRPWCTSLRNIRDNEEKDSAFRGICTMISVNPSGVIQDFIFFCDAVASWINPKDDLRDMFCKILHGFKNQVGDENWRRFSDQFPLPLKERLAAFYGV

stoichiometry N: 1
B1: maltose-binding protein (MBP)-PR18 (peptide)
chain: PRPRPRPRPRPRPRPRPRPRPRPRPRPRPRPRPRPR
